Results reported in patent US20190071480A1 (Biogen, published 2019).
Substitutions are numbered along the chain they refer to. Bridges are numbered along the chain shown (N, C = ends).

T1: extracellular domain of activin receptor type IIB (ActRIIBecd), biotinylated (Homo sapiens (Human), UniProt Q13705 27-117, amino-biotinylated with amine-PEG3-Biotin)
T1 construct: immobilised on a streptavidin-coated sensor chip; also called biotinylated ActRIIBecd; extracellular domain of ActRIIB
T1 sequence: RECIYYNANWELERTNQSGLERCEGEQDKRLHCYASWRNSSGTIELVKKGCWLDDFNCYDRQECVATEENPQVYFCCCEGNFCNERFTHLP

B1: SEQ ID NO: 268, cysteine pairs C23-C27^a, C65-C65^b, C79-C114^b, C80-C112^b (designed binder)
chain: VDFSDVGWNDWIVAPPGYHAFYCHGECPFPLADHLNSTNHAIVQTLVNSVAQAKHKQRKRLKSSCKRHPLYNSKIPKACCVPTELSAISMLYLDENEKVVLKNYQDMVVEGCGCR
modifications: disulfides C23-C27 (intra), C65-C65 (inter), C79-C114 (inter), C80-C112 (inter)
notes: homodimer by intermolecular disulfide
B2: SEQ ID NO: 300, cysteine pairs C23-C79^a (designed binder)
chain: VDFKDVGWNDHAVAPPGYHAFYCHGECPFPLADHLNSDNHAIVQTKVNSVGQAKRKGYKRLKSSCKRHPLYNSKDPKACCVPTELSAPSPLYLDENEKPVLKNYQDMVVHGCGCR
modifications: disulfides C23-C79 (intra)
B3: SEQ ID NO: 248, cysteine pairs C67-C71^a, C8-C41^a, C9-C43^a (designed binder)
chain: NSKDPKACCVPTELSAPSPLYLDENEKPVLKNYQDMVVHGCGCRVDFKDVGWNDHAVAPPGYHAFYCHGECPFPLADHLNSDNHAIVQTKVNSV
modifications: disulfides C67-C71 (intra), C8-C41 (intra), C9-C43 (intra)
B4: SEQ ID NO: 254, cysteine pairs C23-C27^a, C58-C91^a, C59-C93^a (designed binder)
chain: VDFKDVGWNDHAVAPPGYHAFYCHGECPFPLADHLNSDNHAIVQTKVNSVNSKDPKACCVPTELSAPSPLYLDENEKPVLKNYQDMVVHGCGCR
modifications: disulfides C23-C27 (intra), C58-C91 (intra), C59-C93 (intra)
B5: SEQ ID NO: 348, cysteine pairs C15-C15^b, C29-C62^a, C30-C64^a, C88-C92^a (designed binder)
chain: GQAKRKGYKRLKSSCKRHPLYNSKIPKACCVPTELSAISMLYLDENEKVVLKNYQDMVVEGCGCRVDFSDVGWNDWIVAPPGYHAFYCHGECPFPLADHLNSTNHAIVQTLVNSV
modifications: disulfides C15-C15 (inter), C29-C62 (intra), C30-C64 (intra), C88-C92 (intra)
notes: as for B1
B6: SEQ ID NO: 242, cysteine pairs C29-C30^a (designed binder)
chain: GQAKRKGYKRLKSSCKRHPLYNSKDPKACCVPTELSAPSPLYLDENEKPVLKNYQDMVVHGCGCR
modifications: disulfide 29-30
B7: SEQ ID NO: 236, cysteine pairs C59-C59^b, C8-C41^a, C9-C43^a (designed binder)
chain: NSKDPKACCVPTELSAPSPLYLDENEKPVLKNYQDMVVHGCGCRGQAKRKGYKRLKSSCKRHPLY
modifications: disulfide 8-41, 9-43; also: homodimer via intermolecular C59-C59 disulfide
notes: as for B1
B8: SEQ ID NO: 260, cysteine pairs C79-C80^a (designed binder)
chain: AQAKHKQRKRLKSSCKRHPLYVDFSDVGWNDWIVAPPGYHAFYCHGECPFPLADHLNSTNHAIVQTLVNSVNSKIPKACCVPTELSAISMLYLDENEKVVLKNYQDMVVEGCGCR
modifications: disulfides C79-C80 (intra)
B9: SEQ ID NO: 260, cysteine pairs C80-C114^a, C79-C112^a, C44-C48^a (designed binder)
chain: B8 chain
modifications: disulfides C80-C114 (intra), C79-C112 (intra), C44-C48 (intra)
B10: SEQ ID NO: 324, cysteine pairs C79-C80^a (designed binder)
chain: B8 chain with S25K, W32H, I33A, T59D, L67K
modifications: disulfides C79-C80 (intra)
B11: SEQ ID NO: 284, cysteine pairs C8-C9^a (designed binder)
chain: NSKIPKACCVPTELSAISMLYLDENEKVVLKNYQDMVVEGCGCRAQAKHKQRKRLKSSCKRHPLYVDFSDVGWNDWIVAPPGYHAFYCHGECPFPLADHLNSTNHAIVQTLVNSV
modifications: disulfides C8-C9 (intra)
B12: SEQ ID NO: 284, cysteine pairs C59-C59^b, C8-C43^a, C9-C41^a, C88-C92^a (designed binder)
chain: B11 chain
modifications: disulfides C59-C59 (inter), C8-C43 (intra), C9-C41 (intra), C88-C92 (intra)
notes: as for B1

What follows are binders tested against T1, extracellular domain of activin … (assay: BIAcore SPR as Example 5 (method not restated); SD ±2.45 nM).
Experimental: (§1) Biosensor experiments. In one embodiment, experiments were performed on a BIAcore™ T100/T200 instrument (Pharmacia Biosensor AB) in the multichannel mode (serial flow path involving flow cells 1+2+3+4). Flow rate was 10 μl/min; temperature was 25° C.; and data were recorded at 2.5 points/s. All four segments of a sensor chip CMS were coated with streptavidin (Sigma) to a density of 2000 pg/mm² (2000 resonance units) by the aminocoupling procedure. ActRIIBecd (10 mg) and amine-PEG3-Biotin (10 mg, Pierce, Rockford, Ill.) were dissolved in 200 μl H₂O and 10 mg NaCNBH₃ was added to prepare biotinylated ActRIIBecd. The reaction mixture was heated at 70° C. for 24 h, after that a further 10 mg NaCNBH₃ was added and the reaction was heated at 70° C. for another 24 h. After cooling to room temperature, the mixture was desalted with the spin column (3,000 molecular weight cut off (MWCO)). […] Sensograms were recorded during flow of the analyte (the ActRIIBecd-associated polypeptides (i.e., domains) as previously described) first through flow cell 1 (control) then through flow cell 2 (biotinylated ActRIIBecd). […] The sensograms obtained at 1.11, 3.33, 10, 30, and 90 nM analyte were evaluated for equilibrium binding, association rate, and dissociation rate by using the programs supplied with the instrument (BIA evaluation 2.1; Software Handbook. 1995; Pharmacia Biosensor AB).

Row | Kd [nM] | Binder
1 | 8.03 | B1
2 | 32.7 | B2

The binders below were run against T1, extracellular domain of activin … (assay: BIAcore SPR as Example 5 (method not restated); SD ±1.74 nM).
Experimental: as §1

Row | Kd [nM] | Binder
3 | 18.5 | B3
4 | 17.6 | B4

These binders were tested against T1, extracellular domain of activin … (assay: Mean KD column of Table 5; method not restated (BIAcore as Example 5); species also listed in Table 4).
Experimental: Biosensor experiments. In one embodiment, experiments were performed on a BIAcore™ T100/T200 instrument (Pharmacia Biosensor AB) in the multichannel mode (serial flow path involving flow cells 1+2+3+4). Flow rate was 10 μl/min; temperature was 25° C.; and data were recorded at 2.5 points/s. All four segments of a sensor chip CMS were coated with streptavidin (Sigma) to a density of 2000 pg/mm² (2000 resonance units) by the aminocoupling procedure. ActRIIBecd (10 mg) and amine-PEG3-Biotin (10 mg, Pierce, Rockford, Ill.) were dissolved in 200 μl H₂O and 10 mg NaCNBH₃ was added to prepare biotinylated ActRIIBecd. The reaction mixture was heated at 70° C. for 24 h, after that a further 10 mg NaCNBH₃ was added and the reaction was heated at 70° C. for another 24 h. After cooling to room temperature, the mixture was desalted with the spin column (3,000 molecular weight cut off (MWCO)). Biotinylated ActRIIBecd was collected, freeze-dried and used for streptavidin (SA) chip preparation. Amino-biotinylated ActRIIBecd was then immobilized independently on flow cells 2-4 for 10 minutes at a flow rate of 5 μL/min and a concentration of 20 μM in 10 mM sodium acetate, pH 4.0, at a density of 50-250 resonance units (RU). The stored polypeptides were dissolved in glycine buffer (2.5 g of glycine, 0.5 g of sucrose, 370 mg of L-glutamate, 10 mg of sodium chloride, and 10 mg of Tween 80 in 100 mL water, pH 4.5) to prepare 10 mg/mL solution and then diluted with previous glycine buffer to prepare analytes with various concentration. Sensograms were recorded during flow of the analyte (the ActRIIBecd-associated polypeptides (i.e., domains) as previously described) first through flow cell 1 (control) then through flow cell 2 (biotinylated ActRIIBecd). The sensogram obtained for flow cell 1 was subtracted from the sensogram obtained for flow cell 2. The sensograms obtained at 1.11, 3.33, 10, 30, and 90 nM analyte were evaluated for equilibrium binding, association rate, and dissociation rate by using the programs supplied with the instrument (BIA evaluation 2.1; Software Handbook. 1995; Pharmacia Biosensor AB).

Row | Kd [nM] | Binder
5 | 18.5 | B3
6 | 8.03 | B1
7 | 32.7 | B2
8 | 5.1 | B5
9 | 48.7 | B6
10 | 16.2 | B7
11 | 29.1 | B8
12 | 8.31 | B9
13 | 29.3 | B10
14 | 31.8 | B11
15 | 6.88 | B12
16 | 17.6 | B4

Each binder was assayed against T1, extracellular domain of activin … (assay: BIAcore SPR as Example 5 (method not restated); SD ±1.35 nM).
Experimental: as §1

Row | Kd [nM] | Binder
17 | 29.1 | B8
18 | 6.88 | B12

What follows are binders tested against T1, extracellular domain of activin … (assay: BIAcore SPR as Example 5 (method not restated); SD ±1.07 nM).
Experimental: as §1

Row | Kd [nM] | Binder
19 | 5.1 | B5
20 | 8.31 | B9

The binders below were run against T1, extracellular domain of activin … (assay: BIAcore SPR as Example 5 (method not restated); SD ±2.10 nM).
Experimental: as §1

Row | Kd [nM] | Binder
21 | 16.2 | B7
22 | 29.3 | B10

The binders below were run against T1, extracellular domain of activin … (assay: BIAcore SPR as Example 5 (method not restated); SD ±3.15 nM).
Experimental: as §1

Row | Kd [nM] | Binder
23 | 48.7 | B6
24 | 31.8 | B11
